In the DeepSol protein solubility set:

Assay: soluble on expression in E. coli; label from the status in PepcDB or PDB records

With “TTSRQIGSDDNTSLGTNISIDGMPLSNDAMRTQLYGITGVDRSDLYVADRTVTRRTGMNAGIDLRTISTDHIETIEIERGISSVGEGNLSSGAIRIRTKQGSAPLQMRVKADPLSKLAYVGKGFKVSKRGASIHTGIDFLHNKPDVREVLDSYKRSTLHARYSDQLNYGDMIVDLGIGLMQTFSIQDSKSDQLVNEYEETYNSKYLRSSLSFDAKVRFSGSWLNSIDWLLSADYTSDLLKRKKYYISTSGPKSMPVATESGEHEGVFLPSAYYAYYEIDNQPLYFFSRFKANTDINFTERHHHHLLYGLEARSSKNIGRGVVADPTRPPYPGNNSYIRPRPNYNIPASVYAAFFVEDRASVEWGANRLGIQAGLRATHLFNLPSSYALSRKMLIEPRIKANWQYRAEHLSINLRAGYGMENKLPTLDHLYPDKIYRDFMVLNAYMQNPELDHLITYTYIHNPENPAIRENRNVKKEIGIDMTYKRFDFSLTLFHEESRRGFEYFDSYLPIAFDRYTKLIAPLPPGHKPQKEDYIQEHHKDFFVIPTVQNSAKVVKRGIEFRLRTPYLKAINTQVEVNGAYYHTLYASGIPIMFRPIVSEYEQALYPYVGYYEGSLHKHYQRFNTNVWVNTHFPRYKLIFTSFFQIIWHDASYRGHEESEFPYAYMDLDGVVHPTSKAAILEAAATNDILKYLSRERTELYYRATYKPISLRINFKATKEFSDRMRLAFFVDNIIDINPKYKQANNTTERDWSIPYFGIETTFTL” as the sequence, how does the “soluble on expression in E. coli” value read?
Its value is “not soluble”.

Which “soluble on expression in E. coli” value does the source give for “MGSDKIHHHHHHMKIMVSEQFQCFMASLGVDLNSLLEAAGINKVVWQEQLMLSDVEYWQLMNEFDNQLTDEMILSLGNITNINTFMPSFFAALAAKNGEQAIARMATYKSLAGPVHLEIVTKPDIVNIHILGNSLGVELPRFTIMTEQLLLISLLRVGTGKLIKPISVGSKYPYGDQIDAVMGIRPQQLADNCIQFQVTDLQRAFISANNSMWAFLQPGLDQQKLAIEHNQSLLATVQALLLKKIPSGSFSIDEIATSLNLSKRTLQRHLSTLSTTFNDEVQIARRTLVVPLMKDQSLNLIEISYLLGYSDPESFSRAFKKWFHQSPSVYRQQSLGMFKN” here?
The value was “not soluble”.

For “MPADDLQQALNNSQNGDVITLGPGSYFGNFIISNQVTLRSNNKGEAIIDSQGKGHGLWLKNSQITIENLTITNWGHDLTDQNSGIYSHGKIDNNKVPSLTIRNNILIGDGFGIWLNQADKAIISHNRVKGNLTLRSADRGNGIQVANVTNSHVFLNEVSETRDGVYVISSQNNIIEQNTMHHLRYGIHYMYSYDNTVKNNTAYDTRAGYALMSSRRLTITGNKTTNSEDYGFLLNFITQSTFSHNYVKNVWTKPENKVLGRDGKGLFVYNSGYNTVKHNIIDTAEIGIHLTAGSENIKIFGNSFINNPTQVKYVSNKKQEWSKDGRGNYWSNYLGWDMGNDGIGDTIFEPNDGIDKLVWQYPEMKMIMDSPAILILRWVQRQFPVLKPPGVKDSFPLMSAPSLTKNEQAATPLAVTTSTFTKSNSAQSANTTSASLKELEHHHHHH”, which “soluble on expression in E. coli” value is on record?
Its value is “soluble”.

For “MAHHHHHHMGKVRKNKQVRNLLKSLTERVDTDDGENEYARLTQTPVVSMRLSKVKFKTSLQNVLVEPYTERVKDFVAKNNYEIRMERALLDEIKNANQNMNRIGDVLSARGGKQGKTRDNHIIMSRYFHYLKDKDEDFGLSFFPVYKTFKSNASHFGDNLSSSLYPHELLQMGSMSSESFLKNSPKRISFPERGDS”, which “soluble on expression in E. coli” value is on record?
Its value is “not soluble”.

Which “soluble on expression in E. coli” value does the source give for “MVQTYRSPVRIYKHPFEIVMAAYEMRFPTCPQIPIFVGSEVTYEYKSVDGAEWVIDRKCQLNVEAPYLVKKIAGVDYVYFSQKNSLDRRKRTLDIEATNISFSSRINVKENCTYYVHAENENWTCFEQSASLDVKNFFGLESAVEKLAVRQYGANLAKGKEILEFFIEELLKKTTHIERFRDADQEETTSATDSAIEMKELSDGDAVLVNDRPPMLAAETDEMRTARATASFDDACRVCMIIYCRIFIIISSYFFNFPADSKLEAEYIRRFLGQLSPLEESRLCEIKYSLQAHHKGKLPNDAHLLRFLRARDFDVAKAKDMVHASIIWRKQHNVDKILEEWTRPTVIKQYFPGCWHNSDKAGRPMYILRFGQLDTKGMLRSCGVENLVKLTLSICEDGLQRAAEATRKLGTPISSWSLVVDLDGLSMRHLWRPGVQCLLKIIEIVEANYPETMGQVLVVRAPRVFPVLWTLISPFIDEKTRKKFMVSGGSGGDLKEELRKHIEEKFIPDFLGGSCLTTNCGLGGHVPKSMYLPVEEQEGASSSEDPLHSTYTSTATWRGYPVEVVIPIETAGCVLTWDFDVLKNDCEFSLYFSTEKIEQPAVRDGAQSPTTILNPVEMVSAAIGGASHQHPDLQCAPELKIGTPQLRLEEKAVVFQEGDSMQGSHYCSRAGTYIMQWRVPETAAGHSSTFDFGSHKCRLIYYYEILNSENFRGSVASLESCRSSSFSSIAPPTPPTPGTPRNP” here?
The value was “not soluble”.
